{"source": "paper PMC11687654", "key": {"[1]": {"target": "TDP-43-flag (pcDNA3.1 construct) (UniProt Q13148)", "sequence (Q13148 whole entry)": "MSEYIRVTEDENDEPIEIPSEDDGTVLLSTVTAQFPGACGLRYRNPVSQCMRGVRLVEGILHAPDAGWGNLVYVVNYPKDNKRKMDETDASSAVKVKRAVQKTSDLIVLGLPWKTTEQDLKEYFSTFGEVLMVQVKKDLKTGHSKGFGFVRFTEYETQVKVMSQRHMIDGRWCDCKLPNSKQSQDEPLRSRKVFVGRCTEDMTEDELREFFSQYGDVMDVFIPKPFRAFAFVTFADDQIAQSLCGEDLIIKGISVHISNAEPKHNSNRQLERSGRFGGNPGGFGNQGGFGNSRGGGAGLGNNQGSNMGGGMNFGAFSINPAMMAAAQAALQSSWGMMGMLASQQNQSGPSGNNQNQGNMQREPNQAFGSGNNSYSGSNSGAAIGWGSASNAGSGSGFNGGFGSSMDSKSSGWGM", "test": "AlphaScreen or HTRF; proximity AlphaLISA on lysates of co-transfected HEK293FT cells, 72 hr after transfection; anti-FLAG acceptor beads, biotinylated Ataxin-2 antibody and streptavidin donor beads; room temperature"}, "[2]": {"target": "TDP-43mutRRM-flag (pcDNA3.1 construct) (UniProt Q13148)", "sequence (Q13148 whole entry)": "as above", "test": "AlphaScreen or HTRF; proximity AlphaLISA on lysates of co-transfected HEK293FT cells, 72 hr after transfection; anti-FLAG acceptor beads, biotinylated Ataxin-2 antibody and streptavidin donor beads; room temperature"}}}
{"substance": "Ataxin-2 (ATXN2, pcDNA3.1 construct) (from UniProt Q99700 1-1313) (natural protein)", "values": [{"measurement": "fold increase of the AlphaLISA interaction signal", "setting": "[1]", "value": 22, "unit": "fold"}, {"measurement": "fold increase of the AlphaLISA interaction signal", "setting": "[2]", "value": 2, "unit": "fold"}]}
